In article PMC9891255:

Assays:
UPF2S [1] = target: T1, UPF2S (Homo sapiens, UniProt Q9HAU5 761-1227); assay: analytical SEC
UPF2-U1BD = UPF2-U1BD (Homo sapiens, UniProt Q9HAU5 1105-1227); assay: fluorescence anisotropy
UPF2S [2] = target: T1, UPF2S; assay: fluorescence anisotropy

T1 sequence (Q9HAU5 761-1227): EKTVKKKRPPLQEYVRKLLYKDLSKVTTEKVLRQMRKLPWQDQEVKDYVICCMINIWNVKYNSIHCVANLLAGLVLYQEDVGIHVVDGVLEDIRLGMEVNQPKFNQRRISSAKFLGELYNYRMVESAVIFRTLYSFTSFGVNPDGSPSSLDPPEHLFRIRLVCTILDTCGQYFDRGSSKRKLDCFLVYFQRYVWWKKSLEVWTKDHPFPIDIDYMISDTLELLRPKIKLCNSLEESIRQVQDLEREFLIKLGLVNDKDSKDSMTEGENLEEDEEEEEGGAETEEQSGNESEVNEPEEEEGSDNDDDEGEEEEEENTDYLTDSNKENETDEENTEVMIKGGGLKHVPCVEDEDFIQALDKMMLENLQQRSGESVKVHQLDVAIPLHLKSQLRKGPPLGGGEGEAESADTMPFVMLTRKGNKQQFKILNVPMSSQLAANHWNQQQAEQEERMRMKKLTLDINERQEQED
UPF2-U1BD, sequence (Q9HAU5 1105-1227): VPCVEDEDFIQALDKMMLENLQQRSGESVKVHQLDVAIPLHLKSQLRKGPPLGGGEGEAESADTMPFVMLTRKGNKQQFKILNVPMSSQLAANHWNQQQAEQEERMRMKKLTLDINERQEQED

Binder	binding result (UPF2S [1])	binding result (UPF2-U1BD)	Kd (UPF2S [2]) [nM]
UUUUUUUUUUUUUUU (ssRNA) [U15 RNA]	no binding		
UUUUUUUUUUUU (ssRNA) [U12 RNA]		no binding	~600
